The target in the data set is T1, ILF3-GFP full-length (UniProt Q12906 1-894).
T1 sequence: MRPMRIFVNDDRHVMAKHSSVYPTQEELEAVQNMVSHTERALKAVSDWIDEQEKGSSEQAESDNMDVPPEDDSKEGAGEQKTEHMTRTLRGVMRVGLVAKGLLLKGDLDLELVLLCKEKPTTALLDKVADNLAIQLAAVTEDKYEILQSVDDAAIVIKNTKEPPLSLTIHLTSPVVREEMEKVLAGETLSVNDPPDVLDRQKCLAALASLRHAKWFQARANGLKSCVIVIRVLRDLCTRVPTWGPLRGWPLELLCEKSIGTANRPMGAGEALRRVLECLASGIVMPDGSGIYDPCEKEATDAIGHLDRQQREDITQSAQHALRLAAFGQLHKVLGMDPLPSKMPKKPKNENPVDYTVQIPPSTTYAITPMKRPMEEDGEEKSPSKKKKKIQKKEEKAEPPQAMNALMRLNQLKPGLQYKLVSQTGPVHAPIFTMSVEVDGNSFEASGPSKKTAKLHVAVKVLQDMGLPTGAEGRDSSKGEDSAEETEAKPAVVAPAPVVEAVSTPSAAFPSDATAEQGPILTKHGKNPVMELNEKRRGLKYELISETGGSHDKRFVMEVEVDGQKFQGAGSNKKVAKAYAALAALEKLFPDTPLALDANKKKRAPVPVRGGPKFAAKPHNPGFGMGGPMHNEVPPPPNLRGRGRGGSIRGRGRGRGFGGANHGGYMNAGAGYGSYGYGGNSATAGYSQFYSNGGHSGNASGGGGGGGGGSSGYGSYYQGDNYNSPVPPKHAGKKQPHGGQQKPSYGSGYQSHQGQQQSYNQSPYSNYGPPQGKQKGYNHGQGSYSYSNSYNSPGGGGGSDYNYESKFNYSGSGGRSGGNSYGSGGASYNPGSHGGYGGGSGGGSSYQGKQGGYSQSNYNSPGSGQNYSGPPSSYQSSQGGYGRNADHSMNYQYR
The data set can be described thus: MST; MST: 50 nM His-ILF3-GFP, oligo 0.4 nM-5 uM, 25 mM Tris-HCl pH 7.5, 100 mM NaCl, room temperature. The following applies: protein: recombinant, tags: His, blunt.

B1: mutTERRA RNA:DNA hybrid (UUAGCC) (DNA:RNA)
RNA: AGGGUUAGCCUUAGCCUUAGCC
DNA: GGCTAAGGCTAAGGCTAACCCT
Regarding B1, the binding result was “no binding”.

For the origin of these results see publication PMC11214836, “ILF3 safeguards telomeres from aberrant homologous recombination as a telomeric R-loop reader”.
